From US20170189519A1

B1: Fab fragment of CR6261 (Fab, V domains shown)
VH: EVQLVESGAEVKKPGSSVKVSCKASGGPFRSYAISWVRQAPGQGPEWMGGIIPIFGTTKYAPKFQGRVTITADDFAGTVYMELSSLRSEDTAMYYCAKHMGYQVRETMDVWGKGTTVTVSS
VL: QSVLTQPPSVSAAPGQKVTISCSGSSSNIGNDYVSWYQQLPGTAPKLLIYDNNKRPSGIPDRFSGSKSGTSATLGITGLQTGDEANYYCATWDRRPTAYVVFGGGTKLTVLG
B2: CR6261 (antibody, V domains shown)
VH: B1 VH
VL: B1 VL

Legend:
Conditions in all cases: remark: other sources report otherwise
s127H1-t2-cl18long [1] = experiment: SEC-MALS with Fab fragments, protein of fraction 3 (ca. 110 kD alone)
s127H1-t2-cl18long [2] = experiment: SEC-MALS with Fab fragments, protein of fraction 3
s127H1-t2-cl18long [3] = target: s127H1-t2-cl18long
26H1 = experiment: ELISA, coated CR6261, P. pastoris culture medium

Binder	size of the complex formed (s127H1-t2-cl18long [1]) [kD]	Fab fragments bound per trimer (Fab fragments) (s127H1-t2-cl18long [2])	Kd (s127H1-t2-cl18long [3]) [nM]	CR6261 binding signal (26H1)
B1	215	3	–	–
B2	–	–	0.7	78800
